Measurements: US20260167721A1 (ABLEXIS, published 2026)

B1: CD3 × CD33-BspAb80 (bispecific antibody)
chain 1: QVQLQESGPGLVKPSETLSLTCTVSGGSISSYYWSWIRQPAGKCLEWIGRIYTSGSTKYNPSLKSRVTMSVDTSKNQFSLKLISVTAADTAVYFCARERIRDLYFDYWGQGTLVTVSSGGGGSGGGGSGGGGSGGGGSNFMLTQPHSVSESPGKTVTISCTRTSGSIASNYVQWYQQRPGSSPTTVIYEDNQRPSGVPDRFSGSIDSSSNSASLTISGLKTEDEAAYYCQSYDRSNRVFGCGTKLTVLDKTHTCPPCPAPEFEGGPSVFLFPPKPKDTLMISRTPEVTCVVVDVSHEDPEVKFNWYVDGVEVHNAKTKPREEQYNSTYRVVSVLTVLHQDWLNGKEYKCKVSNKALPASIEKTISKAKGQPREPQVYTLPPCREEMTKNQVSLWCLVKGFYPSDIAVEWESNGQPENNYKTTPPVLDSDGSFFLYSKLTVDKSRWQQGNVFSCSVMHEALHNHYTQKSLSLSPGK
chain 2: EVQLVQSGAEVKKPGSSVKVSCKASGYTITDSNIHWVRQAPGQSLEWIGYIYPYNGGTDYNQKFKNRATLTVDNPTNTAYMELSSLRSEDTAFYYCVNGNPWLAYWGQGTLVTVSSASTKGPSVFPLAPSSKSTSGGTAALGCLVKDYFPEPVTVSWNSGALTSGVHTFPAVLQSSGLYSLSSVVTVPSSSLGTQTYICNVNHKPSNTKVDKRVEPKSCDKTHTCPPCPAPEFEGGPSVFLFPPKPKDTLMISRTPEVTCVVVDVSHEDPEVKFNWYVDGVEVHNAKTKPREEQYNSTYRVVSVLTVLHQDWLNGKEYKCKVSNKALPASIEKTISKAKGQPREPQVCTLPPSREEMTKNQVSLSCAVKGFYPSDIAVEWESNGQPENNYKTTPPVLDSDGSFFLVSKLTVDKSRWQQGNVFSCSVMHEALHNRFTQKSLSLSPGK
chain 3: DIQLTQSPSTLSASVGDRVTITCRASESLDNYGIRFLTWFQQKPGKAPKLLMYAASNQGSGVPSRFSGSGSGTEFTLTISSLQPDDFATYYCQQTKEVPWSFGQGTKVEVKRTVAAPSVFIFPPSDEQLKSGTASVVCLLNNFYPREAKVQWKVDNALQSGNSQESVTEQDSKDSTYSLSSTLTLSKADYEKHKVYACEVTHQGLSSPVTKSFNRGEC
B2: CD3 × CD33-BspAb85 (bispecific antibody)
scFv-Fc: EVQLVESGGGLVKPGGSLRLSCAASGFTFSSYSMNWVRQAPGKCLEWVSSISRSSGYIFYADSVKGRFTISRDNAKNSLYLQMNSLRAEDTAVYYCVRERVGAGFDYWGQGTLVTVSSGGGGSGGGGSGGGGSGGGGSNFMLTQPHSVSESPGKTVAISCTRSSGSIASNYVQWYQQRPGSSPTAVIYEDNQRPSGVPDRFSGSIDSSSNSAFLTISGLKTEDEADYYCQSYDSSNRVFGCGTKLTVLGGGGSDKTHTCPPCPAPEFEGGPSVFLFPPKPKDTLMISRTPEVTCVVVDVSHEDPEVKFNWYVDGVEVHNAKTKPREEQYNSTYRVVSVLTVLHQDWLNGKEYKCKVSNKALPASIEKTISKAKGQPREPQVYTLPPCREEMTKNQVSLWCLVKGFYPSDIAVEWESNGQPENNYKTTPPVLDSDGSFFLYSKLTVDKSRWQQGNVFSCSVMHEALHNHYTQKSLSLSPGK
heavy: B1 chain 2
light: B1 chain 3
notes: KiH heterodimer
B3: CD3 × CD33-BspAb81 (bispecific antibody)
chain 1: QVQLQESGPGLVKPSQTLSLTCTVSGGSISSGGYYWSWIRQHPGKCLEWIGYIYYSGSTYYNPSLKSRVTISVDTSKDQFSLKLSSVTAADTAVYYCARERKTSLPFDIWGQGTMVTVSSGGGGSGGGGSGGGGSGGGGSNFMLTQPHSVSESPGKTVTISCTRSSGSIASNYVQWYQQRPGSSPTTVIYEDNQRPSGVPDRFSGSIDSSSNSASLTISGLKTEDEAYYYCQSFDSSNRVFGCGTKLTVLDKTHTCPPCPAPEFEGGPSVFLFPPKPKDTLMISRTPEVTCVVVDVSHEDPEVKFNWYVDGVEVHNAKTKPREEQYNSTYRVVSVLTVLHQDWLNGKEYKCKVSNKALPASIEKTISKAKGQPREPQVYTLPPCREEMTKNQVSLWCLVKGFYPSDIAVEWESNGQPENNYKTTPPVLDSDGSFFLYSKLTVDKSRWQQGNVFSCSVMHEALHNHYTQKSLSLSPGK
chain 2: B1 chain 2
chain 3: B1 chain 3
B4: CD3 × CD33-BspAb84 (bispecific antibody)
scFv-Fc: EVQVAESGGGLVKPGGSLRLSCAASGFTFSRYSMNWVRQAPGKCLEWVSSISSSGSYTYYADSVKGRFTISRDNAKNSLYLQMNSLRAEDTAVYYCVRERGKGAGMDVWGQGTTVTVSSGGGGSGGGGSGGGGSGGGGSNFMLTQPHSVSESPGKTVTISCTRSSGSIASNYVQWYQQRPGSSPTTVIYEDNQRPSGVPDRFSGSIDSSSNSASLTISGLKTEDEADYYCQSYDSSNRVFGCGTKLTVLGGGGSDKTHTCPPCPAPEFEGGPSVFLFPPKPKDTLMISRTPEVTCVVVDVSHEDPEVKFNWYVDGVEVHNAKTKPREEQYNSTYRVVSVLTVLHQDWLNGKEYKCKVSNKALPASIEKTISKAKGQPREPQVYTLPPCREEMTKNQVSLWCLVKGFYPSDIAVEWESNGQPENNYKTTPPVLDSDGSFFLYSKLTVDKSRWQQGNVFSCSVMHEALHNHYTQKSLSLSPGK
heavy: B1 chain 2
light: B1 chain 3
notes: KiH heterodimer
B5: CD3 × CD33-BspAb82 (bispecific antibody)
chain 1: EVQLVESGGGLVKPGGSLRLSCAASGLTFSTYSMNWVRQAPGKCLEWVSSISSSGSYVYYADSVKGRFTMSRDNAKNSLYLQMNSLRAEDTAVYYCARERRELLFDYWGQGTLVTVSSGGGGSGGGGSGGGGSGGGGSNFMLTQPHSVSESPGKTVTISCTRSSGSIASNYVQWYQQRPGSSPTSVIYEDNQRPSGVPDRFSGSIDSSSNSASLTISGLKTEDEADYYCQSYDRSNRVFGCGTKLTVLDKTHTCPPCPAPEFEGGPSVFLFPPKPKDTLMISRTPEVTCVVVDVSHEDPEVKFNWYVDGVEVHNAKTKPREEQYNSTYRVVSVLTVLHQDWLNGKEYKCKVSNKALPASIEKTISKAKGQPREPQVYTLPPCREEMTKNQVSLWCLVKGFYPSDIAVEWESNGQPENNYKTTPPVLDSDGSFFLYSKLTVDKSRWQQGNVFSCSVMHEALHNHYTQKSLSLSPGK
chain 2: B1 chain 2
chain 3: B1 chain 3
B6: CD3 × CD33-BspAb89 (bispecific antibody)
scFv-Fc: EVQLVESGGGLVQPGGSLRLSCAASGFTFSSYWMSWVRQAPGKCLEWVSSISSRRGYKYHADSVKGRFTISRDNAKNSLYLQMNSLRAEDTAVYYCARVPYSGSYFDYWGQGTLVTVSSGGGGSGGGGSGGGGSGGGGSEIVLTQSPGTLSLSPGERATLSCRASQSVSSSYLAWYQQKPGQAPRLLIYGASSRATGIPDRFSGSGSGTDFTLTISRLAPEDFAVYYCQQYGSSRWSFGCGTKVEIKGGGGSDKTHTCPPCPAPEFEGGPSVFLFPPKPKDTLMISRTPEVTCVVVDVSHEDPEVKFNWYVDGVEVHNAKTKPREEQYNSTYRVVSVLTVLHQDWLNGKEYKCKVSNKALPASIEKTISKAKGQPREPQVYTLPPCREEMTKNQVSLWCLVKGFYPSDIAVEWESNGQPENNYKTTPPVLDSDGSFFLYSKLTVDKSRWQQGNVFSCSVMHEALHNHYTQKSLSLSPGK
heavy: B1 chain 2
light: B1 chain 3
notes: KiH heterodimer
B7: CD3 × CD33-BspAb83 (bispecific antibody)
chain 1: EVQLVESGGGLVKPGGSLRLSCVASGFTFSRYSMNWVRQAPGKCLEWVSSISSSSRYTYYADSLKGRFIMSRDNAKNSLFLQMNSLRAEDTAVYYCARNLYNALDYWGQGTLVTVSSGGGGSGGGGSGGGGSGGGGSFMLTQPHSVSESPGKTVTISCTRSSGSIASNYVQWYQQRPGSSPTTVIYEDNQRPSGVPDRFSGSIDSSSNSASLTISGLQTEDEADYYCQSYDSSNRVFGCGTKLTVLDKTHTCPPCPAPEFEGGPSVFLFPPKPKDTLMISRTPEVTCVVVDVSHEDPEVKFNWYVDGVEVHNAKTKPREEQYNSTYRVVSVLTVLHQDWLNGKEYKCKVSNKALPASIEKTISKAKGQPREPQVYTLPPCREEMTKNQVSLWCLVKGFYPSDIAVEWESNGQPENNYKTTPPVLDSDGSFFLYSKLTVDKSRWQQGNVFSCSVMHEALHNHYTQKSLSLSPGK
chain 2: B1 chain 2
chain 3: B1 chain 3
B8: CD3 × CD33-BspAb86 (bispecific antibody)
scFv-Fc: EVQLVESGGGLVKPGGSLRLSCAASGFTFSSYSMNWVRQAPGKCLEWVSSISRSGTYIYYADSVKGRFTISRDNAKNSLYLQMNSLRAEDTAVYYCARERWELLYFDYWGQGTLVTVSSGGGGSGGGGSGGGGSGGGGSQTVVTQEPSLTVSPGGTVTLTCASSTGAVTSGYYPNWFQQKPGQAPRALIYSTSNKHSWTPARFSGSLLGGKAALTLSGVQPEDEAEYYCLLYYGGAYVFGCGTKVTVLGGGGSDKTHTCPPCPAPEFEGGPSVFLFPPKPKDTLMISRTPEVTCVVVDVSHEDPEVKFNWYVDGVEVHNAKTKPREEQYNSTYRVVSVLTVLHQDWLNGKEYKCKVSNKALPASIEKTISKAKGQPREPQVYTLPPCREEMTKNQVSLWCLVKGFYPSDIAVEWESNGQPENNYKTTPPVLDSDGSFFLYSKLTVDKSRWQQGNVFSCSVMHEALHNHYTQKSLSLSPGK
heavy: B1 chain 2
light: B1 chain 3
notes: KiH heterodimer

What follows are binders tested against T1, human CD3 (TCR/CD3 complex on the cell surface) (human, UniProt P07766 23-207; P04234 22-171; P09693 23-182) (assay: flow cytometry, Jurkat WT cells, 10 ug/mL).
T1 construct: whole, on cells; Native CD3 on human Pan-T cells or Jurkat wild-type cells; also called CD3 on Pan-T cells; CD3 on Jurkat WT cells
T1 sequence (P07766 23-207, chain 1 of 3): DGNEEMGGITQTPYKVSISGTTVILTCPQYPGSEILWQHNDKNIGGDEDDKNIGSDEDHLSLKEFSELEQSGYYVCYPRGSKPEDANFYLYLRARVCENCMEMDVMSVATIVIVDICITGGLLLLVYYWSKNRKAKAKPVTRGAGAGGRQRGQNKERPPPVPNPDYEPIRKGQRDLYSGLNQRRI
T1 sequence (P04234 22-171, chain 2 of 3): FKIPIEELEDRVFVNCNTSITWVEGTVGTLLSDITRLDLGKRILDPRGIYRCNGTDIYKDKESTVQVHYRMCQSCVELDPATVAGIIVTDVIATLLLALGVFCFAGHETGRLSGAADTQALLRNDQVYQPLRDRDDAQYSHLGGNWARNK
T1 sequence (P09693 23-182, chain 3 of 3): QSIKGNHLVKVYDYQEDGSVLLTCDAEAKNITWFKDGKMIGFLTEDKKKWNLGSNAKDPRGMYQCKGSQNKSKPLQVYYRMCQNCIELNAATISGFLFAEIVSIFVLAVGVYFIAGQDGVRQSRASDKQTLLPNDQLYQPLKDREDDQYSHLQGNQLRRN

Row | gMFI [gMFI] | Binder
1 | 59400 | B1
2 | 32000 | B2
3 | 55100 | B3
4 | 51000 | B4
5 | 58600 | B5
6 | 1750 | B6
7 | 69100 | B7
8 | 9550 | B8

What follows are binders tested against T1, human CD3 (TCR/CD3 complex on the cell …) (assay: flow cytometry, Jurkat WT gMFI over Jurkat KO gMFI, 1 ug/mL).

Row | Jurkat WT/KO (Fold) [fold] | Binder
9 | 13.1 | B1
10 | 6.2 | B2
11 | 7.1 | B3
12 | 10.8 | B4
13 | 12.9 | B5
14 | 0.8 | B6
15 | 14 | B7
16 | 1.4 | B8

These binders were tested against T1, human CD3 (TCR/CD3 complex on the cell …) (assay: flow cytometry, Pan-T cells, 1 ug/mL).

Row | % Positive [%] | gMFI [gMFI] | Binder
17 | 99.7 | 330000 | B1
18 | 99.4 | 96000 | B2
19 | 99.7 | 79900 | B3
20 | 99.9 | 173000 | B4
21 | 99.5 | 319000 | B5
22 | 0.6 | 1830 | B6
23 | 99.8 | 566000 | B7
24 | 35.2 | 5410 | B8

Each binder was assayed against T1, human CD3 (TCR/CD3 complex on the cell …) (assay: flow cytometry, Jurkat WT cells, 1 ug/mL).

Row | gMFI [gMFI] | Binder
25 | 50500 | B1
26 | 18900 | B2
27 | 24100 | B3
28 | 35200 | B4
29 | 54500 | B5
30 | 1840 | B6
31 | 67700 | B7
32 | 3180 | B8

These binders were tested against T1, human CD3 (TCR/CD3 complex on the cell …) (assay: flow cytometry, Pan-T cells, 10 ug/mL).

Row | % Positive [%] | gMFI [gMFI] | Binder
33 | 99.8 | 486000 | B1
34 | 99.7 | 249000 | B2
35 | 99.8 | 369000 | B3
36 | 99.9 | 362000 | B4
37 | 99.9 | 462000 | B5
38 | 1.7 | 1960 | B6
39 | 99.8 | 598000 | B7
40 | 92.4 | 25400 | B8

These binders were tested against T1, human CD3 (TCR/CD3 complex on the cell …) (assay: flow cytometry, Jurkat WT gMFI over Jurkat KO gMFI, 10 ug/mL).

Row | Jurkat WT/KO (Fold) [fold] | Binder
41 | 15 | B1
42 | 9.9 | B2
43 | 13.5 | B3
44 | 13.9 | B4
45 | 14.4 | B5
46 | 0.9 | B6
47 | 14.3 | B7
48 | 3.9 | B8
